Assay results published in PMC11272584 (Nature Metabolism, 2024).
Numbering of substitutions follows the chain as printed.

Legend:
[1] = molecular target: T1, GIPR I221M (human) (UniProt P48546)
T1 sequence: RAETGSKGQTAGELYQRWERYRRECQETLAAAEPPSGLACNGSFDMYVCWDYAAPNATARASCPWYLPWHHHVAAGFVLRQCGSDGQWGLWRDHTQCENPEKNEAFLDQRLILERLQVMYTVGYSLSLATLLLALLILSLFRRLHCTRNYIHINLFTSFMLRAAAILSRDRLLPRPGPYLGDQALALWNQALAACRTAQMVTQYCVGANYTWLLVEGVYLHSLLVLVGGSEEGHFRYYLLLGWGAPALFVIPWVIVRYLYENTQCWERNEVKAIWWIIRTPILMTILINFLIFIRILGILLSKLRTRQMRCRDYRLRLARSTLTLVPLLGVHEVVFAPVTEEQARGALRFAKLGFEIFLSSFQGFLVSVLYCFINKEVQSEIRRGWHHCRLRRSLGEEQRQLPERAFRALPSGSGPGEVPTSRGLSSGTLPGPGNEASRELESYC

[2] = molecular target: T2, GIPR A207V (human) (UniProt P48546)
T2 sequence: T1 sequence with A186V, M200I

[3] = molecular target: T3, GIPR I299V (human) (UniProt P48546)
T3 sequence: T1 sequence with M200I, I278V

[4] = molecular target: T4, GIPR R190Q (human) (UniProt P48546)
T4 sequence: T1 sequence with R169Q, M200I

[5] = molecular target: T5, GIPR I378M (human) (UniProt P48546)
T5 sequence: T1 sequence with M200I, I357M

[6] = molecular target: T6, GIPR A150T (human) (UniProt P48546)
T6 sequence: T1 sequence with A129T, M200I

β-arrestin 2 recruitment (BRET) on stimulation with GIP(1-42): logEC50 (Arrestin) (log M (inferred)) [1]: -9.38
β-arrestin 2 recruitment (BRET) on stimulation with GIP(1-42): logEC50 (Arrestin) (log M (inferred)) [2]: -9.42
β-arrestin 2 recruitment (BRET) on stimulation with GIP(1-42): logEC50 (Arrestin) (log M (inferred)) [3]: -9.01
β-arrestin 2 recruitment (BRET) on stimulation with GIP(1-42): logEC50 (Arrestin) (log M (inferred)) [4]: -8.86
β-arrestin 2 recruitment (BRET) on stimulation with GIP(1-42): logEC50 (Arrestin) (log M (inferred)) [5]: -9.13
β-arrestin 2 recruitment (BRET) on stimulation with GIP(1-42): logEC50 (Arrestin) (log M (inferred)) [6]: -8.92
Substance: β-arrestin 2 (Rluc8-Arrestin-3-Sp1) (from UniProt P32121 1-409) (natural protein)
